In patent EP2814500B1 (Ecole Polytechnique Fédérale de Lausanne (EPFL), dated 2020):

What was measured:
[1] = biological target: T1, mouse glycophorin-A (GYPA) on the mouse erythrocyte surface (mouse, UniProt P14220 1-168); experiment: photo-crosslinking of biotinylated peptide on whole mouse erythrocytes, streptavidin Western blot
[2] = biological target: T1, mouse glycophorin-A (GYPA) on the mouse …; experiment: photo-crosslinking of biotinylated peptide on whole mouse erythrocytes, streptavidin bead purification, streptavidin and anti-GYPA Western blots

B1: mismatch peptide (H2N-PLLTVGMDLWPWGGSGCRG-CONH2) conjugated to Mts-Atf-biotin (peptide)
peptide: H-PLLTVGMDLWPWGGSGCRG-NH2
modifications: not fully specified; also: conjugated to Mts-Atf-biotin, site not given here
notes: Control peptide with the same residues as ERY1 in scrambled order
- binding result [1]: no binding

B2: ERY1 peptide (H2N-WMVLPWLPGTLDGGSGCRG-CONH2) functionalized with biotin and a photoactivatable crosslinker (peptide)
peptide: H-WMVLPWLPGTLDGGSGCRG-NH2
modifications: also: conjugated to Mts-Atf-biotin, site not given here
notes: Synthetic peptide: the ERY1 12-mer followed by a GGSG linker, Cys and Arg-Gly; also called biotinylated soluble peptide; peptide-biotin complex
- binding result [2]: binds
